Results on 2 molecules are retold here after article PMC11931385, “Structural and functional analysis of cancer-associated missense variants in the retinoblastoma protein pocket domain” (The Journal of Biological Chemistry, 2025).

No end group written: not given here. TMR = tetramethyl rhodamine dye

Holding throughout (test): fluorescence polarisation; 37 °C, after the 25 °C reading ramped over 7 min to 37 °C and 2 min incubation; unlabeled Rb^P against 1.5 nM TMR-E2F1^TD or 7.5 nM TMR-E7^LxCxE; 25 mM Tris pH 8.0, 200 mM NaCl, 1 mM DTT, 0.1% Tween-20; apparent Kd
What all share (conditions): both partners purified

The target in test [1] is T1, Rb^P S648T (human, UniProt P06400 380-788, S648T).
T1 construct: also called variant 46
T1 sequence (looked up): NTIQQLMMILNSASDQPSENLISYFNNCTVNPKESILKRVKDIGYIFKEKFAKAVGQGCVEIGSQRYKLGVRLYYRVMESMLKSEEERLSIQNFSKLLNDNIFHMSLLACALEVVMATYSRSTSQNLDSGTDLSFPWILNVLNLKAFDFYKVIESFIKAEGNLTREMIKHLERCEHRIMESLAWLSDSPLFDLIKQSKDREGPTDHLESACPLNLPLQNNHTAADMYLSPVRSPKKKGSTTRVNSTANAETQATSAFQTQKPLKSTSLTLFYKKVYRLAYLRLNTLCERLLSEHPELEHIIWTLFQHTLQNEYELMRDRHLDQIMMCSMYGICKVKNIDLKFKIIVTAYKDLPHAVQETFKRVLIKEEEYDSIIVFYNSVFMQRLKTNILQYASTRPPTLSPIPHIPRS

Test [2] addresses T2, Rb^P T738I (human, UniProt P06400 380-788, T738I).
T2 construct: also called variant 67
T2 sequence (looked up): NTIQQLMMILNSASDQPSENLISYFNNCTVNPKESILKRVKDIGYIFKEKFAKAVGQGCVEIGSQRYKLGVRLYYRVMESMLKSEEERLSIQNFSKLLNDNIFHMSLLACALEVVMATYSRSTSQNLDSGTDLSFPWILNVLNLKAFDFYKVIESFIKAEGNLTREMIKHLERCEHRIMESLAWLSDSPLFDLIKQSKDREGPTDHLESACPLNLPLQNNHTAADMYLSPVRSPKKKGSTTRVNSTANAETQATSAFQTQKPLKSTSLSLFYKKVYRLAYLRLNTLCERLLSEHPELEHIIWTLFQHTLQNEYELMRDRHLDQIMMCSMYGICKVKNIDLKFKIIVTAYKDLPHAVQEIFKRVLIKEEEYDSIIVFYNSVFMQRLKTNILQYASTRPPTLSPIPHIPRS

In test [3] the target is T3, Rb^P H686Y (human, UniProt P06400 380-788, H686Y).
T3 construct: also called variant 58
T3 sequence (looked up): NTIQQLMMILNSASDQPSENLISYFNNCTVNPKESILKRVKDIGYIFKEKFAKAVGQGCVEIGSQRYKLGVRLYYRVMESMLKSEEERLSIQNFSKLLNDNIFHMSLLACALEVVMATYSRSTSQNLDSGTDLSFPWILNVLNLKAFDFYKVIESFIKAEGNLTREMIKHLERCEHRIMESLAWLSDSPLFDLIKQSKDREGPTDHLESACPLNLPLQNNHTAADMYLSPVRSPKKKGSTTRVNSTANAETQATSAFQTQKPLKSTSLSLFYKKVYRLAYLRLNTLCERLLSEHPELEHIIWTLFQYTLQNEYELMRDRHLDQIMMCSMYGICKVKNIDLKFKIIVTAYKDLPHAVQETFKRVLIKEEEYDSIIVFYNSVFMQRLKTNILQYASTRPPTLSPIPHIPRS

The target in test [4] is T4, Rb^P A488V (human, UniProt P06400 380-788, A488V).
T4 construct: also called variant 14
T4 sequence (looked up): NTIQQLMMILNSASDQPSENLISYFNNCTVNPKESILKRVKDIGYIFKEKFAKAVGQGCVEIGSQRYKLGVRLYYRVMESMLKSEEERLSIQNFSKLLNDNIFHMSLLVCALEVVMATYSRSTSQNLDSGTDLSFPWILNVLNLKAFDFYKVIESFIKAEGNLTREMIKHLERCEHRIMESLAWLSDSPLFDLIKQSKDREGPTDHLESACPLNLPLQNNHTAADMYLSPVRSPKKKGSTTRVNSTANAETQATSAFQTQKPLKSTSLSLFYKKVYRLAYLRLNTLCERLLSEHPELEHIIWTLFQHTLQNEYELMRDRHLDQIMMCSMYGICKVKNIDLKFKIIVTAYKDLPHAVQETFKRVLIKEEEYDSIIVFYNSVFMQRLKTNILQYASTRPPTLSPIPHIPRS

The target of test [5] is T5, Rb^P R656W (human, UniProt P06400 380-788, R656W).
T5 construct: also called variant 49
T5 sequence (looked up): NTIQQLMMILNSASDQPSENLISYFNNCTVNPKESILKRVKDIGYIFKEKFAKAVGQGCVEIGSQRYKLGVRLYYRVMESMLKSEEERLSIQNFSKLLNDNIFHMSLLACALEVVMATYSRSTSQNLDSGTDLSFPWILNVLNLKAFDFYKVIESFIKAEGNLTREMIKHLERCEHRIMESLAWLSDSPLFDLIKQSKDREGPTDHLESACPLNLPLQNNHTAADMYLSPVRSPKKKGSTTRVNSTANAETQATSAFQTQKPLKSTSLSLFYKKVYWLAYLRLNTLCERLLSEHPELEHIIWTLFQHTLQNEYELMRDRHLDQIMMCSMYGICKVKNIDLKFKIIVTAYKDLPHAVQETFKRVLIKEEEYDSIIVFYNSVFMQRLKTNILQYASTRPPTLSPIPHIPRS

B1: TMR-E2F1^TD, peptide of the E2F1 transactivation domain (peptide)
peptide: {TMR}-GEGIRDLFDCDFGDLTPLD
notes: also called E2F^TD; source: synthetic peptide, bought: GenScript
As for B1, the Kd came to 58 nM in test [1]; 179 nM in test [2]; 35 nM in test [3]; 78 nM in test [4]; 77 nM in test [5].

B2: TMR-E7^LxCxE, LxCxE peptide of the E7 oncoprotein from HPV (peptide)
peptide: DLYCYEQLN
modifications: also: TMR label, position not given here
notes: source: synthetic peptide, bought: GenScript
With B2, the Kd came to 14 nM in test [1]; 151 nM in test [2]; 14 nM in test [3]; 19 nM in test [4]; 19 nM in test [5].
